This note sets out measurements from US20100130721A1.

To fix the notation:
B1: fusion protein PG1 (designed binder)
chain: AYRLILNGRTLRGETTTEAVDAATAERVFRQYANDNGVDGEWTYDDATRTFTVTERPEVIDASELTPAVTGGGGCADDDDDDHHHHHH
B2: fusion protein PG2 (designed binder)
chain: AYRLILNGRTLRGETTTEAVDAATAERVFRQYANDNGVDGEWTYDDATRTFTVTERPEVIDASELTPAVTPGAYRLILNGRTLRGETTTEAVDAATAERVFRQYANDNGVDGEWTYDDATRTFTVTERPEVIDASELTPAVTGGGGCADDDDDDHHHHHH
B3: fusion protein PL1 (designed binder)
chain: ATIRANLIYADGRTQTAEFRGTFEEATAEAYRYADLLARENGRYTVDVADRGYTLNIRFAGGGGGCADDDDDDHHHHHH
B4: fusion protein PL3 (designed binder)
chain: ATIRANLIYADGRTQTAEFRGTFEEATAEAYRYADLLPRENGRYTVDVADRGYTLNIRFAPGATIRANLIYADGRTQTAEFRGTFEEATAEAYRYADLLPRENGRYTVDVADRGYTLNIRFAPGATIRANLIYADGRTQTAEFRGTFEEATAEAYRYADLLPRENGRYTVDVADRGYTLNIRFAGGGGGCADDDDDDHHHHHH
B5: fusion protein PG3 (designed binder)
chain: AYRLILNGRTLRGETTTEAVDAATAERVFRQYANDNGVDGEWTYDDATRTFTVTERPEVIDASELTPAVTPGAYRLILNGRTLRGETTTEAVDAATAERVFRQYANDNGVDGEWTYDDATRTFTVTERPEVIDASELTPAVTPGAYRLILNGRTLRGETTTEAVDAATAERVFRQYANDNGVDGEWTYDDATRTFTVTERPEVIDASELTPAVTGGGGCADDDDDDHHHHHH
B6: fusion protein PL2 (designed binder)
chain: ATIRANLIYADGRTQTAEFRGTFEEATAEAYRYADLLPRENGRYTVDVADRGYTLNIRFAPGATIRANLIYADGRTQTAEFRGTFEEATAEAYRYADLLPRENGRYTVDVADRGYTLNIRFAGGGGGCADDDDDDHHHHHH

What is called Kd is a measure of binding affinity in units of concentration. Low values mean tighter binding, high ones weaker binding. Usually koff stands for the first-order rate constant of dissociation. A lower koff goes with a long-lived complex. The kon is the second-order rate constant of association. Lower therefore signals slow association.

This assay concerns the target human polyclonal IgG (human). The assay can be described thus: SPR (Biacore), His-tagged fusion protein captured on Ni-NTA chip, human IgG injected. (SPR reads the build-up and loss of mass on a sensor chip optically.)
Molecule B1 yielded a Kd of 0.384 nM, a koff of 0.000154 s⁻¹ and a kon of 401000 M⁻¹ s⁻¹.
On to B2, for which the Kd is 0.115 nM, the koff worked out at 0.0001 s⁻¹ and the kon was 864000 M⁻¹ s⁻¹.
Taken in the same sequence, the figures for B3 were 2.06 nM, 0.000312 s⁻¹ and 151000 M⁻¹ s⁻¹.
The corresponding values for B4 are 0.788 nM, 0.000237 s⁻¹ and 301000 M⁻¹ s⁻¹.
B5 returned a Kd of 0.068 nM, a koff of 7.63e-05 s⁻¹ and a kon of 1.12e+06 M⁻¹ s⁻¹.
The corresponding values for B6 are 1.34 nM, 0.000264 s⁻¹ and 246000 M⁻¹ s⁻¹.
